These results are taken from the nanobody polyreactivity screen of Harvey et al. (2022).

This data set is described as follows: yeast display, Sf9 membrane polyspecificity reagent, FACS + sequencing; frameworks hold sequencing errors. The gist of the method:
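Nanobodies from a synthetic yeast display library (Saccharomyces cerevisiae BJ5465), induced 36–48 hours with galactose, were stained 1 hour at 4 °C with 10% biotinylated, detergent-solubilized Sf9 membrane reagent, enriched on streptavidin microbeads, then FACS-sorted. Anti-HA (expression) and streptavidin (reagent binding) fluorescence set low and high (top ~1%) gates. Polyreactivity labels come from the gate of origin. Genes were colony-PCR amplified, MiSeq 2 × 250 sequenced and filtered by CDR length.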
Regarding “QVQLVESGGGLVQAGGSLRLSCAASGGTFRGYVMGWYIQAPGKERELVAAISYSGGTTYYADSVKGRFTISRDNAKNTVYLQMNSLKPEDTAVYYCNKGYRRYEDGATPGYGYWGQGTQVTVSS”, the “polyreactivity (PSR sort gate)” value is on record as “high polyreactivity”. As to “QVQLVESGGGLVQAGGSLRLSCAASGGTFRPNAMGWYRQAPGKERELVAAITRSGGSTYYADSVKGRFTISRDNAKNTVYLQMNSLKPEDTAVYYCARDLREWGQGTQVTVSS”, the “polyreactivity (PSR sort gate)” value is “low polyreactivity”. Turning to “QVQLVESGGGLVQAGGSLRLSCAASGGTFRSNAMGWYRQAPGKERELVAAISKRGGSTHYADSVKGRFTISRDNSKNTVYLQMNSLKPEDTAVYYCNTYGWQEGDYWGQGTQVTVSS”, the “polyreactivity (PSR sort gate)” value is “high polyreactivity”. As for “QVQLVESGGGLVQAGGSLRLSCAASGGTFRTYTMGWYRQAPGKERELVAAINFRGGSTYYADSVKGRFTISRDNAKNTVYLQMNSLKPEDTAVYYCATPLQQEGDWGQGTQVTVSS”, the “polyreactivity (PSR sort gate)” value is given as “high polyreactivity”. As for “QVQLVESGGGLVQAGGSLRLSCAASGGTFSFNAMGWSRQAPGKEREVVAAITSDDGTNDADSVKGRFTISRDNAKNTVYLQMNSLKPEDTAVDYCAAESRFEGWGQGTQVTVSS”, the “polyreactivity (PSR sort gate)” value is listed as “low polyreactivity”. The result for “QVQLVESGGGLVQAGGSLRLSCAASGGTFSKYAMGWYRQAPGKEREFVAAITVSGGGTYYADSVKGRFTISRDNAKNTVYLQMNSLKPEDTAVYYCAADLAWTASDYWGQGTQVTVSS” reads “low polyreactivity”; that for “QVQLVESGGGLVQAGGSLRLSCAASGGTFSPYAMGWYRQAPGKERELVAVIRSDVTTNYADSVKGRFTISRDNAKNTVYLQMNSLKPEDTAVYYCNVERHRVWDYQWREEDDYWGQGTQVTVSS”, “low polyreactivity”.

On to “QVQLVESGGGLVQAGGSLRLSCAASGGTFSQYAMGWYRQAPGKERELVATISYSGTSTYYADSVKGRFTISRDNEKNTVYLHMNSLKPEDTAVYDCNIRWRWYRSDYYSWGQGTQVTVSS”, for which the “polyreactivity (PSR sort gate)” value is given as “high polyreactivity”.

For the sequence “QVQLVESGGGLVQAGGSLRLSCAASGGTFSRNVMGWYRQAPGTERELVAAISFSGGTTYYADSVKGRFTISRDNAKNTVYLQMISLKPEDTAVYYCAARPVNTVRPFDYWGQGTQVTVSS”, the “polyreactivity (PSR sort gate)” value is on record as “high polyreactivity”.

“QVQLVESGGGLVQAGGSLRLSCAASGGTFSYYAMGWYRQAPGKGELVAAISSGGSTNYADSVKGRFTISRDNAKNTVYLQMNSLKPEDTAVYFCAARYRFWGPYNYWGQGTQVTVSS”: the “polyreactivity (PSR sort gate)” value is “high polyreactivity”. With “QVQLVESGGGLVQAGGSLRLSCAASGGTFSYYAMGWYRQARGKERELDAAISGNGDTTYYADSVKGRFTISRDNAKNTVYLQMNSLKPEDTAVYYCAADGWGFIVGIDYYPYGEGDYWGQGTQVTVSS”, the “polyreactivity (PSR sort gate)” value is “low polyreactivity”. Regarding “QVQLVESGGGLVQAGGSLRLSCAASGGTFTYSPMGWDREATGTERELVAAITDGGSTYYAVSVKGRFTISRDNAKTTFYLQMNSLKPEDTAVYYCAVRVRHNSKNTFFPYSYGYWGQGTQVTVSS”, the “polyreactivity (PSR sort gate)” value is reported as “low polyreactivity”. The value for “QVQLVESGGGLVQAGGSLRLSCAASGGTFVGNAMGWYRQAPGKERELVAAISTNSGSTYYADSVKGRFTISRDNAKNTVYLQMNSLKPEDPAVYYCATRNSSKRRGYYYWGQGTQVTVSS” was “high polyreactivity”. “QVQLVESGGGLVQAGGSLRLSCAASGGTFVHYTMGWYRPAPGKERELVASIRRGGSTNYADSVKGRFTISRDNAKNTVYLQMNSLKPEDTAVYYCAKRVQHYRYYYWGQGSQVTVSS”: the “polyreactivity (PSR sort gate)” value is reported as “low polyreactivity”. The value for “QVQLVESGGGLVQAGGSLRLSCAASGGTFVVYAMGWYRQAPGKERELVAAITWIGDSTYYADSVKGRFTISRDNAKNTVYLQMNSLKPEDTAVHYCNAEGWYYLTEYGYWGQGTQVTVSS” was “low polyreactivity”; that for “QVQLVESGGGLVQAGGSLRLSCAASGGTFWAYTMGWYRQAPGKERELVATISFGTGNTYYADSVKGRFTISRDNAKNTVYLQMNSLKPEDTAVYYCAAQWPELTRSYVTVEVEYWGQGTQVTVSS” was “low polyreactivity”; that for “QVQLVESGGGLVQAGGSLRLSCAASGGTFWTNAMGWYRQAPGKERELVARITSGGGTNYADSVKGRFTISRDNAKNTVYVQMNSRKPEDTAVYYCAAETIYYPVAQSYYSFEYWGQGTQVTVSS” was “low polyreactivity”.

Take “QVQLVESGGGLVQAGGSLRLSCAASGGTFWVYAMGWYRQAPGKERELVAAIRWRGGRTYYADSVKGRFTISRDNAKNTVYLQMNSLKPEDTAVYYCAATTWRSGRYNYWGQGTQVTVSA”: the “polyreactivity (PSR sort gate)” value is recorded as “high polyreactivity”.

Turning to “QVQLVESGGGLVQAGGSLRLSCAASGGTFWVYAMGWYRQAPGKERELVAAIRWRGGRTYYADSVKGRFTISRDNAKNTVYLQMNSLKPEDTEVYYCAATTWRSGRYNYWGQGTQVTVSS”, the “polyreactivity (PSR sort gate)” value is listed as “high polyreactivity”. The result for “QVQLVESGGGLVQAGGSLRLSCAASGGTFWWYTMGWYRQAPGKERELVATITRGGSTNYADSVKGRFTISRDNAKNTVYLQMNSLKPEDTAVYYCAKRYRPYYSTYDYWGQGTQVTVSS” reads “high polyreactivity”; that for “QVQLVESGGGLVQAGGSLRLSCAASGGTFYRYAMGWYRQAPGIERELVAAISGGRGRTYYADSVKGRFTISRDNAKNTVYLQMNSLKPVDTAVYYCSNKPYGAVSGSDYDYWGQGTQVTVSS”, “high polyreactivity”; that for “QVQLVESGGGLVQAGGSLRLSCAASGGTFYSYAMGWYRQAPGKEREFVAAITYGGGSTYYADSEKGRFTISRDNAKNSVYLQKNSLKPEDTAVYYCNARRYGSRLGERYYYWGQGTQVTVSS”, “high polyreactivity”. As for “QVQLVESGGGLVQAGGSLRLSCAASGGTIISYAMGWYRQAPRKERELVAAISRGGSSTYYADSVKGRFTISRDNAKNTVYLQMNSLKPEDTAVYYCVQLTRSGPDLDSWGQGTQVTVSS”, the “polyreactivity (PSR sort gate)” value is “high polyreactivity”. “QVQLVESGGGLVQAGGSLRLSCAASGGTIVWNAMGWNRQAPGKEREFVAAITSSGGSTYYADSVKGRFTISRDNAKNSVYLQMNSLKPEDTAVYYCNVDTHSSYEFNSWGQGTQVTVSS”: the “polyreactivity (PSR sort gate)” value was “low polyreactivity”. For “QVQLVESGGGLVQAGGSLRLSCAASGGTIYRNAMGWYRQAPGKEREMVASITRGGSTTYADSVKGRFTISRDNAKNTVYLQMNCLKPEATAVYYCNAPGQQRYDSWGQGTQVTVSS”, the “polyreactivity (PSR sort gate)” value is listed as “high polyreactivity”. The value for “QVQLVESGGGLVQAGGSLRLSCAASGGTLFTNAMGWYRQAPGKERELVAAISWRGGRTYYADSVKGRFTISRDNAKNTVYLQMNSLKAEDTAVYYCAAASAAGYDYWGQGTQVTVSS” was “low polyreactivity”; that for “QVQLVESGGGLVQAGGSLRLSCAASGGTLRGYAMGWYRQAPGKERELVAAISKRSGSTYYADSVKGRFTISRDNAKNTVYLQMNSLKPEDTAVYYCNTRGLTTEGHYYWGQGTQVTVSS” was “high polyreactivity”; that for “QVQLVESGGGLVQAGGSLRLSCAASGGTLRYYAMGGYRQAPGKERELVAVITSSAGRTYYADSVKGRFTISRDNAKNTVYLQMNSLKPEDTAVYYCPAYDAYSPYQALYDYWGQGTQVTVSS” was “low polyreactivity”. The result for “QVQLVESGGGLVQAGGSLRLSCAASGGTLYRNVMGWYRQAPGKERELVAAISKSGGSTYYADSVKGRFTISRDNAKNTFYLQMNSLKPEDTAVYYCDVSHNRGYDSWGQGTQVTVSS” reads “high polyreactivity”; that for “QVQLVESGGGLVQAGGSLRLSCAASGGTLYRYAMGWYRQAPGKERELVAGISSSGGRTYNADSVKGRFTISRDNAKNTVYLQMNSLIPEDTAVYYCAKYWVSSYDYWGQGTQVTVSS”, “high polyreactivity”.
